# B1: EGF: human recombinant epidermal growth factor (protein, UniProt P01133 23-1207, looked up)
# Pro-epidermal growth factor: PQHWSCPEGTLAGNGNSTCVGPAPFLIFSHGNSIFRIDTEGTNYEQLVVDAGVSVIMDFHYNEKRIYWVDLERQLLQRVFLNGSRQERVCNIEKNVSGMAINWINEEVIWSNQQEGIITVTDMKGNNSHILLSALKYPANVAVDPVERFIFWSSEVAGSLYRADLDGVGVKALLETSEKITAVSLDVLDKRLFWIQYNREGSNSLICSCDYDGGSVHISKHPTQHNLFAMSLFGDRIFYSTWKMKTIWIANKHTGKDMVRINLHSSFVPLGELKVVHPLAQPKAEDDTWEPEQKLCKLRKGNCSSTVCGQDLQSHLCMCAEGYALSRDRKYCEDVNECAFWNHGCTLGCKNTPGSYYCTCPVGFVLLPDGKRCHQLVSCPRNVSECSHDCVLTSEGPLCFCPEGSVLERDGKTCSGCSSPDNGGCSQLCVPLSPVSWECDCFPGYDLQLDEKSCAASGPQPFLLFANSQDIRHMHFDGTDYGTLLSQQMGMVYALDHDPVENKIYFAHTALKWIERANMDGSQRERLIEEGVDVPEGLAVDWIGRRFYWTDRGKSLIGRSDLNGKRSKIITKENISQPRGIAVHPMAKRLFWTDTGINPRIESSSLQGLGRLVIASSDLIWPSGITIDFLTDKLYWCDAKQSVIEMANLDGSKRRRLTQNDVGHPFAVAVFEDYVWFSDWAMPSVMRVNKRTGKDRVRLQGSMLKPSSLVVVHPLAKPGADPCLYQNGGCEHICKKRLGTAWCSCREGFMKASDGKTCLALDGHQLLAGGEVDLKNQVTPLDILSKTRVSEDNITESQHMLVAEIMVSDQDDCAPVGCSMYARCISEGEDATCQCLKGFAGDGKLCSDIDECEMGVPVCPPASSKCINTEGGYVCRCSEGYQGDGIHCLDIDECQLGEHSCGENASCTNTEGGYTCMCAGRLSEPGLICPDSTPPPHLREDDHHYSVRNSDSECPLSHDGYCLHDGVCMYIEALDKYACNCVVGYIGERCQYRDLKWWELRHAGHGQQQKVIVVAVCVVVLVMLLLLSLWGAHYYRTQKLLSKNPKNPYEESSRDVRSRRPADTEDGMSSCPQPWFVVIKEHQDLKNGGQPVAGEDGQAADGSMQPTSWRQEPQLCGMGTEQGCWIPVSSDKGSCPQVMERSFHMPSYGTQTLEGGVEKPHSLLSANPLWQQRALDPPHQMELTQ
# modifications: Pro-epidermal growth factor
# Key:
# clone C10 = test: Effects of EGF and PDGF on proliferation and survival, clone C10; format: cell-based, human
# Method: (§1) EGF and PDGF Enhance Proliferation Rate and Cell Survival. To facilitate the expansion of the human CNS clones, we identified factors that increase the proliferation rate and/or cell survival. To examine the effects of EGF and PDGF on the proliferation and survival of the human CNS clones, 40 ng/mL EGF, 20 ng/mL PDGF or both were added to the standard growth medium, which already contained FGF-2 and 50% CM, and total cell number and BrdU uptake and incorporation were assessed as described above. For clone C2, EGF or PDGF addition increased the total cell number (FIG. 11A) by approximately 2-fold. This increase in cell number was due to enhanced cell viability (decreased cell death), since there were only slight increases in proliferation rate (assessed by BrdU uptake and incorporation, FIG. 11B). […] In the case of clone C10, EGF (but not PDGF) addition increased the total cell number (FIG. 12A) by approximately 40%. […] This increase in cell number was due, at least in part, to enhanced proliferation rates; BrdU uptake and incorporation increase about 2-fold with EGF or EGF+PDGF addition (FIG. 12B), and doubling times (based on cell counts as a function of days in vitro, data not shown) decreased from 3 days (no EGF or PDGF addition) to 2 days (EGF+PDGF addition). […]
# clone C2 = test: Effects of EGF and PDGF on proliferation and survival, clone C2; format: cell-based, human; conditions: added to growth medium with FGF-2 and 50% CM, EGF 40 ng/mL, PDGF 20 ng/mL
# Method: as §1
molecule,measurement,setting,value
B1,increase in BrdU uptake and incorporation,clone C10,approximately 2 fold
same,increase in total cell number,clone C10; EGF 40 ng/mL added to growth medium with FGF-2 and 50% CM,approximately 40%
same,increase in total cell number,clone C2,approximately 2 fold

# Reference: patent publication US6713247B1, “Human CNS cell lines and methods of use therefor” (Signal Pharmaceuticials, Inc., priority 1996, dated 2004)
